Experimental data published in the Immune Epitope Database (IEDB).

How the values were obtained:
[1] = molecular target: HLA-A*02:01; test: IEDB peptide-MHC binding, cellular MHC/competitive/fluorescence; ≥ and ≤ were set here for values at or beyond the usual limits of such assays; conditions: source organism: Mycobacterium tuberculosis
[2] = molecular target: HLA-B*58:01; test: IEDB peptide-MHC binding, purified MHC/direct/fluorescence; filed as Kd, often an IC50 or EC50 that approximates it; ≥ and ≤ were set here for values at or beyond the usual limits of such assays
[3] = molecular target: HLA-B*51:01; test: as above; conditions: source organism: Vibrio cholerae V52
[4] = molecular target: HLA-B*46:01; test: as above
[5] = molecular target: HLA-A*02:12; test: as above; conditions: source organism: Vibrio cholerae V52
[6] = molecular target: HLA-B*40:01; test: as above
[7] = molecular target: HLA-B*57:01; test: as above
[8] = molecular target: HLA-B*15:01; test: as above
[9] = molecular target: HLA-A*30:01; test: as above; conditions: source organism: Vibrio cholerae V52
[10] = molecular target: HLA-A*02:19; test: as above; conditions: source organism: Vibrio cholerae V52
[11] = molecular target: HLA-B*48:01; test: as above
[12] = molecular target: HLA-A*69:01; test: as above
[13] = molecular target: HLA-B*38:01; test: as above
[14] = molecular target: HLA-B*18:01; test: as above
[15] = molecular target: HLA-A*11:01; test: as above; conditions: source organism: Vibrio cholerae
[16] = molecular target: HLA-B*44:02; test: as above; conditions: source organism: Vibrio cholerae V52
[17] = molecular target: HLA-A*01:01; test: as above
[18] = molecular target: HLA-B*27:05; test: as above
[19] = molecular target: HLA-A*29:02; test: as above; conditions: source organism: Vibrio cholerae V52
[20] = molecular target: HLA-B*15:09; test: as above; conditions: source organism: Vibrio cholerae V52
[21] = molecular target: HLA-A*23:01; test: as above; conditions: source organism: Vibrio cholerae V52
[22] = molecular target: HLA-A*24:03; test: as above; conditions: source organism: Vibrio cholerae V52
[23] = molecular target: HLA-A*31:01; test: IEDB peptide-MHC binding, purified MHC/competitive/fluorescence; filed as Kd, often an IC50 or EC50 that approximates it; ≥ and ≤ were set here for values at or beyond the usual limits of such assays; conditions: source organism: Vibrio cholerae MO10
[24] = molecular target: HLA-A*03:01; test: as above; conditions: source organism: Vibrio cholerae MO10
[25] = molecular target: HLA-A*02:01; test: as above; conditions: source organism: Vibrio cholerae MO10
[26] = molecular target: HLA-B*08:01; test: as above; conditions: source organism: Vibrio cholerae MO10
[27] = molecular target: HLA-A*02:03; test: as above
[28] = molecular target: HLA-B*39:01; test: as above; conditions: source organism: Vibrio cholerae MO10
[29] = molecular target: HLA-B*15:17; test: as above; conditions: source organism: Vibrio cholerae MO10
[30] = molecular target: HLA-C*06:02; test: IEDB peptide-MHC binding, purified MHC/direct/fluorescence; filed as Kd, often an IC50 or EC50 that approximates it; ≥ and ≤ were set here for values at or beyond the usual limits of such assays
[31] = molecular target: HLA-A*24:02; test: IEDB peptide-MHC binding, purified MHC/competitive/fluorescence; filed as Kd, often an IC50 or EC50 that approximates it; ≥ and ≤ were set here for values at or beyond the usual limits of such assays
[32] = molecular target: HLA-C*04:01; test: IEDB peptide-MHC binding, purified MHC/direct/fluorescence; filed as Kd, often an IC50 or EC50 that approximates it; ≥ and ≤ were set here for values at or beyond the usual limits of such assays
[33] = molecular target: HLA-C*04:01; test: IEDB peptide-MHC binding, purified MHC/competitive/fluorescence; filed as Kd, often an IC50 or EC50 that approximates it; ≥ and ≤ were set here for values at or beyond the usual limits of such assays; conditions: source organism: human gammaherpesvirus 4
[34] = molecular target: HLA-B*15:42; test: as above; conditions: source organism: human gammaherpesvirus 4
[35] = molecular target: HLA-B*45:06; test: as above; conditions: source organism: human gammaherpesvirus 4
[36] = molecular target: HLA-B*27:20; test: as above; conditions: source organism: human gammaherpesvirus 4
[37] = molecular target: HLA-C*15:02; test: IEDB peptide-MHC binding, purified MHC/direct/fluorescence; filed as Kd, often an IC50 or EC50 that approximates it; ≥ and ≤ were set here for values at or beyond the usual limits of such assays; conditions: source organism: Giardia lamblia ATCC 50803
[38] = molecular target: HLA-C*14:02; test: as above; conditions: source organism: Giardia lamblia ATCC 50803
[39] = molecular target: HLA-B*07:02; test: as above; conditions: source organism: Camelpox virus M-96
[40] = molecular target: HLA-A*02:01; test: as above; conditions: source organism: Camelpox virus M-96
[41] = molecular target: HLA-B*08:01; test: as above; conditions: source organism: Variola virus
[42] = molecular target: HLA-A*26:01; test: as above; conditions: source organism: Variola virus
[43] = molecular target: HLA-A*68:02; test: as above; conditions: source organism: Camelpox virus M-96
[44] = molecular target: HLA-B*08:02; test: as above; conditions: source organism: Variola virus
[45] = molecular target: HLA-B*39:01; test: as above; conditions: source organism: Camelpox virus M-96
[46] = molecular target: HLA-B*15:17; test: as above; conditions: source organism: Camelpox virus M-96
[47] = molecular target: HLA-B*35:01; test: IEDB peptide-MHC binding, purified MHC/competitive/fluorescence; filed as Kd, often an IC50 or EC50 that approximates it; ≥ and ≤ were set here for values at or beyond the usual limits of such assays; conditions: source organism: Vaccinia virus WR
[48] = molecular target: HLA-A*30:01; test: as above; conditions: source organism: Vaccinia virus WR
[49] = molecular target: HLA-A*24:02; test: IEDB peptide-MHC binding, purified MHC/direct/fluorescence; filed as Kd, often an IC50 or EC50 that approximates it; ≥ and ≤ were set here for values at or beyond the usual limits of such assays; conditions: source organism: Giardia lamblia ATCC 50803
[50] = source organism: Vibrio cholerae
[51] = source organism: Vibrio cholerae V52
[52] = source organism: Bacillus anthracis str. A0488
[53] = source organism: Giardia lamblia ATCC 50803
[54] = source organism: Camelpox virus M-96

## AQLLTEFAI
[1]
  IC50: 25 µM

## EVNAHIHTM
[2]; [50]
  Kd: ≥ 20 µM
[3]
  Kd: ≥ 20 µM
[4]; [50]
  Kd: ≥ 20 µM
[5]
  Kd: ≥ 20 µM
[6]; [50]
  Kd: ≥ 20 µM
[7]; [50]
  Kd: ≥ 20 µM
[8]; [51]
  Kd: ≥ 20 µM
[9]
  Kd: ≥ 20 µM
[10]
  Kd: ≥ 20 µM
[11]; [50]
  Kd: ≥ 20 µM
[12]; [50]
  Kd: ≤ 0.001 µM
[13]; [51]
  Kd: ≥ 20 µM
[14]; [51]
  Kd: 1.84 µM
[15]
  Kd: ≥ 20 µM
[16]
  Kd: ≥ 20 µM
[17]; [50]
  Kd: ≥ 20 µM
[18]; [50]
  Kd: ≥ 20 µM
[19]
  Kd: ≥ 20 µM
[20]
  Kd: ≥ 20 µM
[21]
  Kd: ≥ 20 µM
[22]
  Kd: ≥ 20 µM
[23]
  Kd: ≥ 20 µM
[24]
  Kd: ≥ 20 µM
[25]
  Kd: ≥ 20 µM
[26]
  Kd: ≥ 20 µM
[27]; source organism: Vibrio cholerae MO10
  Kd: ≥ 20 µM
[28]
  Kd: 1.33 µM
[29]
  Kd: ≥ 20 µM

## IYPFHVQKI
[30]; [52]
  Kd: 0.816 µM
[31]; [52]
  Kd: ≤ 0.0001 µM

## KYFIPVIEI
[32]; source organism: Homo sapiens
  Kd: ≥ 20 µM

## RRYRRIYDL
[30]; source organism: human gammaherpesvirus 4
  Kd: 0.017 µM
[33]
  Kd: ≥ 5 µM
[34]
  Kd: ≥ 5 µM
[35]
  Kd: ≥ 5 µM
[36]
  Kd: ≤ 0.0001 µM

## RYYLSFFHI
[37]
  Kd: ≥ 20 µM
[30]; [53]
  Kd: ≥ 20 µM
[38]
  Kd: 0.03 µM
[31]; [53]
  Kd: 0.0014 µM

## TESDAIRTL
[39]
  Kd: ≥ 20 µM
[2]; [54]
  Kd: ≥ 20 µM
[4]; [54]
  Kd: ≥ 20 µM
[6]; [54]
  Kd: 0.0225 µM
[7]; [54]
  Kd: ≥ 20 µM
[8]; [54]
  Kd: ≥ 20 µM
[11]; [54]
  Kd: ≥ 20 µM
[12]; [54]
  Kd: ≥ 20 µM
[13]; source organism: Variola virus
  Kd: 3.77 µM
[40]
  Kd: ≥ 20 µM
[14]; [54]
  Kd: 0.017 µM
[17]; [54]
  Kd: ≥ 20 µM
[41]
  Kd: ≥ 20 µM
[42]
  Kd: ≥ 20 µM
[18]; [54]
  Kd: ≥ 20 µM
[43]
  Kd: ≥ 20 µM
[44]
  Kd: ≥ 20 µM
[45]
  Kd: 0.118 µM
[46]
  Kd: ≥ 20 µM
[47]
  Kd: 3.71 µM
[48]
  Kd: ≥ 20 µM
[27]; source organism: Vaccinia virus WR
  Kd: ≥ 20 µM

## YWLNTPFLV
[49]
  Kd: ≤ 0.001 µM
[32]; [53]
  Kd: ≥ 20 µM
